The results in this text go back to PMC7317449, “On the mechanism of calcium‐dependent activation of NADPH oxidase 5 (NOX5)” (The Febs Journal, 2019).

Data set [1] concerns the molecule itself. In words: SEC-MALS; Superdex 200 10/300 GL, 100 μL samples, 50 mM Hepes pH 7.0, 25 mM NaCl, 0.5 TCEP, 1 mL/min; monomer to dimer.
The next data set concerns the target T1, human calmodulin (human, UniProt P0DP23 1-149).
T1 construct: calmodulin, human; gene a gift from Susan Shao, cloned in pET15b without tag; source: cloned in pET15b without tag, purified following established protocols
Description: crystal structure; cocrystallised: 1078 µM calmodulin, 2800 µM peptide, 30 mM Tris/HCl pH 7.4, 2.5 mM CaCl2, 20 °C, sitting drop; 2.2 Å. The settings on record: both partners purified.

B1: EF-domain of hNOX5 (residues 1–161, isoform β) (domain or fragment, human)
chain: MSAEEDARWLRWVTQQFKTIAGEDGEISLQEFKAALHVKESFFAERFFALFDSDRSGTITLQELQEALTLLIHGSPMDKLKFLFQVYDIDGSGSIDPDELRTVLQSCLRESAISLPDEKLDQLTLALFESADADGNGAITFEELRDELQRFPGVMENLTISAAA
notes: NADPH oxidase 5 (NOX5), human, isoform β (v2), EF-domain, residues 1-161; stretch of three alanines from the Not I restriction site, added at the C terminus for cloning reasons (told in words); also called human EF-domain; hEF domain; source: E. coli BL21, purified (Strep column, TEV cleavage, Strep and Nickel columns, Superdex 75); not shown: Strep-tag, N-terminal, cleaved
For B1, the stoichiometry N (commonly a count of units in the complex or per binding partner) in data set [1] came out at 2.

B2: peptide 673–691 of human DH-domain (putative calmodulin-binding region of hNOX5) (peptide)
peptide: Ac-DWSKVFQKVAAEKKGKVQV-NH2
notes: methods: peptide 673-691; The limits are told in two ways (673-691 and 674-685); Val691 is named as a contact, which fits 673-691; also called DH peptide; hNOX5 peptide; source: synthetic peptide (Chinepeptide Co, Shanghai)
For B2, the binding result in the data set with human calmodulin was “binds”.
